Measurements as given in article PMC4000578 (Molecular microbiology, 2014).

Target: the molecule itself
Assay: cross-linking

B1: BrlR-His6V5 (Biofilm resistance locus Regulator with a C-terminal His6V5-tag) (natural protein, Pseudomonas aeruginosa PAO1, UniProt Q9HUT5 1-270, looked up)
chain: MLTIGQLARIFEISTKTLRHYDAIGLFVPARTGSDNGYRYYQPEQIEQLSRILALRRLDVPLEAIDRLKRDGALDDPQRLRHFLQRHQHTLREEISARQRLLAELDRTLATLAHWRIRNMHARIVERPAFSVVGMEYFGSAPGDTIGQLWERFIPREHEIAGKHDPEVSYGICAQQPNGEFHYVAGFEVQEGWPVPEGMVRFQVPAQKYAVFTHKGTAPQIAESFQAIYSHLLAERGLEPKAGVDFEYYDQRFRGPLDPNSQVDLYIPIY
- stoichiometry N: 2
